Measured values: patent US20020197702A1

Key:
Experiment in all cases: cell-based or functional assay
[1] = molecular target: T1, 697-neo HM (caspase-1 treated) caspase (human) (UniProt P42574)
T1 sequence 1: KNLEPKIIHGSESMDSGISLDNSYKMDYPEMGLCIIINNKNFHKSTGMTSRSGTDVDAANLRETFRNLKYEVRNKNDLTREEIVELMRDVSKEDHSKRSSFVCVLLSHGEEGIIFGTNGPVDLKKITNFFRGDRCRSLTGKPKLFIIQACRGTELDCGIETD
T1 sequence 2: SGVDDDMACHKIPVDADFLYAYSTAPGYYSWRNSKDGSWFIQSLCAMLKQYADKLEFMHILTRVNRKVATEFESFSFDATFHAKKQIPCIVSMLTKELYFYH

[2] = molecular target: T2, 697 Bcl-2 HM (caspase-1 treated) caspase (human) (UniProt P42574)
T2 sequence 1: T1 sequence 1
T2 sequence 2: T1 sequence 2

[3] = molecular target: 697-neo HM (spontaneous activity) caspase (human) (UniProt P42574)
[4] = molecular target: r-caspase-3 (His)6 (human) (UniProt P42574)
[5] = molecular target: affinity purified membrane derived caspase-3 from 697 cell heavy membranes (human) (UniProt P42574)

Row | Substance | IC50, inhibition of DEVD-amc cleavage [1] [µM] | IC50, inhibition of DEVD-amc cleavage [2] [µM] | IC50, inhibition of DEVD-amc cleavage [3] [µM] | IC50, inhibition of DEVD-AMC cleavage activity [4] [nM] | IC50, inhibition of DEVD-AMC cleavage activity [5] [nM]
1 | YVAD-ald (peptide) | > 10 | > 10 | > 10 | – | –
2 | Protein p35 (early p35 protein from Autographa californica nuclear polyhedrosis virus) (from UniProt P08160 1-299) | – | – | – | 0.041 | 0.074
